Data on two molecules can be found in US20040186056A1 (SANFORD BURNHAM MEDICAL RESEARCH INSTITUTE, published 2004).

Experiment [1] addresses T1, cell surface nucleolin on intact tumor cells (MDA-MB-435, HL-60) (human, UniProt P19338 2-710).
T1 construct: Native nucleolin on human tumor cell lines; also called cell surface-expressed nucleolin
The experiment can be described thus: phage binding to tumor cells, pfu count; the filing names nucleolin as the receptor only later. An excerpt:
Phage displaying a set of sequences corresponding to fragments of the amino-terminal portion of HMGN2 (SEQ ID NO: 5) were constructed to localize the region responsible for cell binding and in vivo homing. Fragments were designed to follow the exon/intron boundaries of the HMGN2 gene. Inserts encoding the indicated fragments were amplified from the full length HMGN2 phage clone by PCR, purified, digested and directionally cloned into the T7 415-1 and 10-3 vectors. Phage were packaged, amplified and sequenced according to the manufacturer's instructions. Phage preparations were then tested for binding to primary cells obtained from HL-60 xenograft tumors. After a 1 hour incubation at 4° C., cells were washed, and bound phage quantified. […] Furthermore, phage displaying the N-terminal portion of the active fragment SEQ ID NO: 9, which corresponds to exon 3 of the HMGN2 gene, were prepared. These phage expressing the sequence […] (SEQ ID NO: 11) bound to tumor cells 90-fold more than non-recombinant phage.
The phage binding assay was performed essentially as follows. Attachment of phage to cells was quantified by incubating 1×10⁸ pfu of phage displaying SEQ ID NO: 9 for 60 minutes with 1×10⁶ HL-60 cells at 4° C. in Tris-buffered saline with 1 mM Ca⁺² and 1 mM MgCl₂. […] Bound phage were quantified by plating and counting pfu.

For experiment [2], the target named is T2, nucleolin (110-kDa protein of MDA-MB-435 cells, in cell extracts and inside cells) (human, UniProt P19338 2-710).
T2 construct: also called 110 kDa band; full-length nucleolin
T2 sequence (P19338 other isoform, or with tags, fused parts or gaps limits assumed): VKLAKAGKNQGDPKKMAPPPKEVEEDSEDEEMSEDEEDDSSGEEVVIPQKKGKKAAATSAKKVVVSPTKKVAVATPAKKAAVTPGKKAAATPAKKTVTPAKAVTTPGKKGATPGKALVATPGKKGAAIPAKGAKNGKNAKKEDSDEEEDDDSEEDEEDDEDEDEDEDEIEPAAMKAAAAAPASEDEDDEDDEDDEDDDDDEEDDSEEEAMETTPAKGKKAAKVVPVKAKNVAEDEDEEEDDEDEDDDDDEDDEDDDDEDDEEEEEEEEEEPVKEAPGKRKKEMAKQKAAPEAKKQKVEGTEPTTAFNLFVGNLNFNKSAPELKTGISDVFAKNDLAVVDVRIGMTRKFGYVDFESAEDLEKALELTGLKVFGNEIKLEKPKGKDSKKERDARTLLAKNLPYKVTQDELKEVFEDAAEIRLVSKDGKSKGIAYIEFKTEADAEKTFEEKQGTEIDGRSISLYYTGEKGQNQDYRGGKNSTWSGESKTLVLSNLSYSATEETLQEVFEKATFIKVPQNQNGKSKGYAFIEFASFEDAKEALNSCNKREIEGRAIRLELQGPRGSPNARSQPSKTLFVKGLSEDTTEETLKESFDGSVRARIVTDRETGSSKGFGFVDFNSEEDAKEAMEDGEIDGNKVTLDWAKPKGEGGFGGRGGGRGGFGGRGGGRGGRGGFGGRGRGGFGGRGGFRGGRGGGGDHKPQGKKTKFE
Description: affinity chromatography of MDA-MB-435 cell extract on peptide matrix, SDS gel, mass spectrometry. Here is the method: 276:48588-48595 (2001). Briefly, 6×10⁸ MDA-MB-435 cells grown in RPMI 1640 medium with 10% fetal calf serum were pelleted and lysed in 60 ml of RIPA buffer (1% Triton X-100, 0.5% deoxycholic acid, 0.1% SDS, 10 mM Tris-HCl pH 7.6, 150 mM NaCl, and 1% Protease Inhibitor Cocktail for Mammalian Cells; SIGMA). […] Matrix beads were washed three times with IP-wash buffer (0.025% Triton X-100, 50 mM Tris-HCl pH 8.4, 150 mM NaCl, 1 mM CaCl₂, and 0.02% azide), two times with 25 mM Tris-HCl pH 8.4/250 mM NaCl, and eluted with 30 μl of SDS gel sample buffer. Affinity-purified proteins were reduced with 50 mM DTT before being separated on an 8-20% polyacrylamide gel and visualized by Colloidal Blue staining (Invitrogen; Carlsbad, Calif.). Bands that appeared in the peptide SEQ ID NO: 9 eluate, but not in control eluate, were cut out, digested with trypsin and analyzed by mass spectroscopy using matrix-assisted laser desorption ionization-time of flight analysis (Voyager DE-PRO, Applied Biosystems; Foster City, Calif.). Peptide samples were prepared using an alpha-cyano-4-hydroxycinnamic acid (HCCA)/nitrocellulose matrix.

T1 sequence (P19338 other isoform, or with tags, fused parts or gaps limits assumed): as above

B1: phage expressing the HMGN2 exon 3 sequence PQRRSARLSA (SEQ ID NO: 11) (other)
chain: PQRRSARLSA
notes: not shown: T7 phage coat protein fusion partner
With B1, the “fold binding over non-recombinant phage” value in experiment [1] worked out at 90 fold.

For the molecule APKDKPAAVKERKKPAPKPRPQELRSKKAKPAPAS (also called control matrix) [control peptide APKDKPAAVKERKKPAPKPRPQELRSKKAKPAPAS (SEQ ID NO:20)], the binding result in experiment [2] was “no binding”.
